Patent US4990453A, “Modified pseudomonas putida creatine amidinohydrolase” (Boehringer Mannheim GmbH, priority 1987, dated 1991)

Legend:
[1] = substrate: CN(CC(=O)O)C(=N)N; test: purified protein, by the assay type; conditions: other: 37° C., 0.1 mole/liter Tris-HCl (pH 8.0), optimum test conditions, wild type enzyme
[2] = substrate: CN(CC(=O)O)C(=N)N; test: purified protein, by the assay type; type: biochemical, Pseudomonas putida; conditions: other: 37° C., 0.1 mole/liter Tris-HCl (pH 8.0), optimum test conditions, mutant 109 = Val
Source text: (optimum test conditions)

B1: Pseudomonas putida creatine amidinohydrolase, wild type, from Escherichia coli DSM 3143 (pBT 2a-1, DSM 3148P) (Pseudomonas putida) (protein)
chain: MQMPKTLRIRNGDKVRSTFSAQEYANRQARLRAHLAAENIDAAIFTSYHNINYYSDFLYCSFGRPYALVVTEDDVISISANIDGGQPWRRTVGTDNIVYTDWQRDNYFAAIQQALPKARRIGIEHDHLNLQNRDKLAARYPDAELVDVAAACMRMRMIKSAEEHVMIRHGARIADIGGAAVVEALGDQVPEYEVALHATQAMVRAIADTFEDVELMDTWTWFQSGINTDGAHNPVTTRKVNKGDILSLNCFPMIAGYYTALERTLFLDHCSDDHLRLWQVNVEVHEAGLKLIKPGARCSDIARELNEIFLKHDVLQYRTFGYGHSFGTLSHYYGREAGLELREDIDTVLEPGMVVSMEPMIMLPEGLPGAGGYREHDILIVNENGAENITKFPYGPEKNIIRK
[1]
  Km: 25 mM

B2: Pseudomonas putida creatine amidinohydrolase mutant (amino acid 109 = Val; Ala109Val), from Escherichia coli DSM 4105 (pBT 109, DSM 4108P) (Pseudomonas putida; … (protein)
chain: MQMPKTLRIRNGDKVRSTFSAQEYANRQARLRAHLAAENIDAAIFTSYHNINYYSDFLYCSFGRPYALVVTEDDVISISANIDGGQPWRRTVGTDNIVYTDWQRDNYFVAIQQALPKARRIGIEHDHLNLQNRDKLAARYPDAELVDVAAACMRMRMIKSAEEHVMIRHGARIADIGGAAVVEALGDQVPEYEVALHATQAMVRAIADTFEDVELMDTWTWFQSGINTDGAHNPVTTRKVNKGDILSLNCFPMIAGYYTALERTLFLDHCSDDHLRLWQVNVEVHEAGLKLIKPGARCSDIARELNEIFLKHDVLQYRTFGYGHSFGTLSHYYGREAGLELREDIDTVLEPGMVVSMEPMIMLPEGLPGAGGYREHDILIVNENGAENITKFPYGPEKNIIRK
notes: made in house; host or cells: Escherichia coli DSM 4105 (plasmid pBT 109, DSM 4108P)
[2]
  Km: 20 mM

B3: Pseudomonas putida creatine amidinohydrolase mutant (Ala109Val and Val355Met), from Escherichia coli DSM 4106 (pBT 119, DSM 4107P) (Pseudomonas putida; … (protein)
chain: MQMPKTLRIRNGDKVRSTFSAQEYANRQARLRAHLAAENIDAAIFTSYHNINYYSDFLYCSFGRPYALVVTEDDVISISANIDGGQPWRRTVGTDNIVYTDWQRDNYFVAIQQALPKARRIGIEHDHLNLQNRDKLAARYPDAELVDVAAACMRMRMIKSAEEHVMIRHGARIADIGGAAVVEALGDQVPEYEVALHATQAMVRAIADTFEDVELMDTWTWFQSGINTDGAHNPVTTRKVNKGDILSLNCFPMIAGYYTALERTLFLDHCSDDHLRLWQVNVEVHEAGLKLIKPGARCSDIARELNEIFLKHDVLQYRTFGYGHSFGTLSHYYGREAGLELREDIDTVLEPGMVMSMEPMIMLPEGLPGAGGYREHDILIVNENGAENITKFPYGPEKNIIRK
notes: made in house; host or cells: Escherichia coli DSM 4106 (plasmid pBT 119, DSM 4107P)
[2]; 355 = Met
  Km: 16 mM
